Data from patent US20190225689A1 (Janssen / Centocor, published 2019).

Target: T1, human programmed cell death protein 1, PD-1 (human, UniProt Q15116 25-288)
T1 construct: In the assay it was the endogenous PD-1 on circulating CD3+ T cells of treated patients; also called CD279; PDCD1
Assay: PD-1 receptor occupancy by flow cytometry on circulating CD3+ T cells of dosed patients

T1 sequence (Q15116 25-288 limits assumed): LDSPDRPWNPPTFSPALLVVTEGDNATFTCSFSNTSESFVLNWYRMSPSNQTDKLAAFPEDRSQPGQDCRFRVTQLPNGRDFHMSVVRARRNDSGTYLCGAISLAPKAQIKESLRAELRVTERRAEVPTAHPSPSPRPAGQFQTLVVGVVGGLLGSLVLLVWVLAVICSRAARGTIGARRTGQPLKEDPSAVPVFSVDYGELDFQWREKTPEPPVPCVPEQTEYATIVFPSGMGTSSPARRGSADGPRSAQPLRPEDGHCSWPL

B1: JNJ-63723283 (cetrelimab) (antibody, human IgG4 S228P, kappa, V domains shown)
VH: QVQLVQSGAEVKKPGSSVKVSCKASGGTFSSYAISWVRQAPGQGLEWMGGIIPIFDTANYAQKFQGRVTITADESTSTAYMELSSLRSEDTAVYYCARPGLAAAYDTGSLDYWGQGTLVTVSS
VL: EIVLTQSPATLSLSPGERATLSCRASQSVRSYLAWYQQKPGQAPRLLIYDASNRATGIPARFSGSGSGTDFTLTISSLEPEDFAVYYCQQRNYWPLTFGQGTKVEIKR
notes: IgG4/kappa antibody; also called study drug
binding result: binds
